From patent publication US20180237497A1 (CANCER RESEARCH TECHNOLOGY, published 2018) come the findings set out here.

Usually Kd stands for the free concentration of one partner at which half of the binding sites on the other are occupied at equilibrium, for simple one-to-one binding. Higher therefore signals weaker binding. In general, koff refers to the rate constant with which the complex falls apart. Higher therefore signals a short-lived complex. For orientation: kon means the second-order rate constant of association. High values mean faster complex formation, low ones slower complex formation.

Where a chain is given by its changes, count along the chain named. In names and notes the source's numbering stands.

Test [1] concerns the target T1, human IGF2^1-67 (mature insulin-like growth factor 2) (human, UniProt P01344 25-91, biotinylated (site not stated) where immobilised on the chip (Tables 1-4)). Put plainly: cell-based or functional assay.
Test [2] deals with T1, human IGF2^1-67 (mature insulin-like …). Put plainly: SPR kinetic, Fc fusion captured by anti-human IgG, pH 7.4. As for the experimental part: (§1) SPR analysis of the interaction of recombinant IGF1 and IGF2 forms with Fc-domain 11 proteins immobilised by antibody capture (CM5 chip containing monoclonal mouse anti-human IgG antibody immobilised by amine coupling). Measurements were carried out at 25° C. in HBS-EP buffer (pH 7.4).
(§2) Final kinetic analysis of mutants by SPR was conducted using a Biacore T200 biosensor at 25° C. in either HBS-EP (10 mM HEPES pH 7.4, 150 mM NaCl, 3 mM EDTA, and 0.005% (v/v) surfactant P20) or MES-EP (20 mM MES pH 6.5, 150 mM NaCl, 3 mM EDTA, and 0.005% (v/v) surfactant P20) at a flow-rate of 40 μL min⁻¹. […] For the analysis of the Fc-domain 11^AB5 interaction, approximately 50 RU of a biotinylated IGF2:biotinylated ubiquitin mixture (1:8 proportion) was immobilized on the CM5-streptavidin chip. This interaction was also analysed by immobilizing the Fc-domain 11^AB5 and Fc-domain 11^AB5-RHH (or Fc-domain 11^I1572A as control) by Human Antibody Capture (monoclonal mouse anti-human IgG antibody immobilised on a CM5 chip by amine coupling, GE Healthcare) with and without human IgG1 Fc fragment (Bethyl Laboratories, UK) in the control flow cell. […] T200 BiaEvaluation software (GE Healthcare) was used to fit the resulting curves according to a 1:1 binding model. Steady state affinities were determined using the kinetic data, taking the response average at 5 seconds before injection end and for 5 seconds average. Thermodynamic data was performed across the temperature range of 10° C. to 30° C., van't Hoff and Erying plots generated and ΔH, −TΔS and ΔG values determined as previously described.

The next test addresses pro-IGF2^1-104 (UniProt P01344 25-128). The description is as above. The protocol:
as §1, §2

Another test concerns the target T2, pro-IGF2^1-156 (UniProt P01344 25-180).
T2 construct: range 1-156
The test is described as above. As for the experimental part: as §1, §2

The target of test [3] is T1, human IGF2^1-67 (mature insulin-like …). Put plainly: SPR, biotin-IGF2 on chip, pH 7.4. For orientation: In SPR one partner is held on a chip, and binding of the other changes the refractive index at the surface.
The target is the same in test [4]. The test is described as follows: SPR kinetic, biotin-IGF2 on chip, pH 7.4. Summed up: (§3)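 Biacore SPR at 25 °C in HBS-EP pH 7.4 or MES-EP pH 6.5, flow 40 μL/min; ~50 RU biotin-IGF2:biotin-ubiquitin (1:8) on streptavidin chip, or Fc-domain 11 captured via anti-human IgG. Kinetics fitted to 1:1 model; steady-state affinity from response averaged 5 s before injection end.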

Test [5] has the same target. The test is described as follows: SPR kinetic, biotin-IGF2 on chip, pH 6.5. The protocol:
Measurements were carried out at 25° C. in MES-EP buffer, 20 mM MES pH 6.5, 150 mM NaCl, 3 mM EDTA, and 0.005% (v/v) surfactant P20). Data for KD expressed as mean of each experiment, and means of kon and koff are shown.
as §2

For test [6] the target is unchanged. Put plainly: SPR steady state, biotin-IGF2 on chip, pH 7.4. Summed up: as §3
Test [7] shares this target. Put plainly: SPR, biotin-IGF2 on chip, lower pH (6.5); reference domain 11^WT. As for the experimental part: as §2
Test [8] shares this target. The test is described as follows: SPR (Biacore T200, 25 °C, HBS-EP pH 7.4); ΔΔG° = RT ln(KD mutant / KD domain 11^AB3); box AB+CD+FG+FG. As for the experimental part: (§4) Boxes show the change in the binding free energy contribution, ΔΔGº, for the indicated mutants. The loop/s that contains the mutation/s is indicated in each box. The ΔΔGº values were calculated as ΔΔGº=ΔGº domain 11^mutant−ΔGº domain 11^AB3=RTln(KD domain 11^mutant/KD domain 11^AB3). Additive and non-additive contributions of single point mutations are shown when calculated with a box solid line and dashed line, respectively.
(§5) Final kinetic analysis of mutants by SPR was conducted using a Biacore T200 biosensor at 25° C. in either HBS-EP (10 mM HEPES pH 7.4, 150 mM NaCl, 3 mM EDTA, and 0.005% (v/v) surfactant P20) or MES-EP (20 mM MES pH 6.5, 150 mM NaCl, 3 mM EDTA, and 0.005% (v/v) surfactant P20) at a flow-rate of 40 μL min⁻¹. […] This interaction was also analysed by immobilizing the Fc-domain 11^AB5 and Fc-domain 11^AB5-RHH (or Fc-domain 11^I1572A as control) by Human Antibody Capture (monoclonal mouse anti-human IgG antibody immobilised on a CM5 chip by amine coupling, GE Healthcare) with and without human IgG1 Fc fragment (Bethyl Laboratories, UK) in the control flow cell. […] Steady state affinities were determined using the kinetic data, taking the response average at 5 seconds before injection end and for 5 seconds average.

The target is the same in test [9]. The test is described as follows: SPR kinetic, biotin-IGF2 on chip. As for the experimental part:
as §2

Test [10] has the same target. Put plainly: SPR steady state, biotin-IGF2 on chip. The protocol: as §2
Test [11] has the same target. The test is described as follows: SPR (Biacore T200, 25 °C, HBS-EP pH 7.4); ΔΔG° = RT ln(KD mutant / KD domain 11^AB3); box AB+CD. The protocol: as §4, §5
The target is the same in test [12]. The test is described as follows: SPR (Biacore T200, 25 °C, HBS-EP pH 7.4); ΔΔG° = RT ln(KD mutant / KD domain 11^AB3); box AB+FG+FG, solid outline. The protocol:
as §4, §5

Test [13] has the same target. Put plainly: SPR (Biacore T200, 25 °C, HBS-EP pH 7.4); ΔΔG° = RT ln(KD mutant / KD domain 11^AB3); box AB+CD+FG, dashed outline. As for the experimental part:
as §4, §5

Sequence of pro-IGF2^1-104 (P01344 25-128 limits assumed): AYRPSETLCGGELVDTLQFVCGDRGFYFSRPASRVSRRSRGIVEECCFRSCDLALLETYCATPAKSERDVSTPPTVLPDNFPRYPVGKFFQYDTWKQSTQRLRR
T2 sequence (P01344 25-180 limits assumed): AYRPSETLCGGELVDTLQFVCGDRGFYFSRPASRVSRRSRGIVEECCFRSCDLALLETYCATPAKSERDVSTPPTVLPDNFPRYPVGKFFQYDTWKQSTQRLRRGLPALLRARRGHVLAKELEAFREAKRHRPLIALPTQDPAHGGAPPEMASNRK
T1 sequence (P01344 25-91): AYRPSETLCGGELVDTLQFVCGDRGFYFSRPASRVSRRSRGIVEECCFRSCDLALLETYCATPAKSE

B1: human IgG1 Fc-domain 11^AB5 fusion protein (Fc fusion)
chain: NEHDDCQVTNPSTGHLFDLSSLSGRAGFTAAYAKGWGVYMSICGENENCPPGVGACFGQTRISVGKANKRLRYVDQVLQLVYKDGSPCPSKSGLSYKSVISFVCRPEAGPTNRPMLISLDKQTCTLFFSWHTPLACEQAT
notes: Made in HEK293T; also called Fc-domain II^AB5; pHLSec-AB5-hIgG1; not shown: human IgG1 Fc
For B1, in test [1], the “IC50, cell viability of HT29/219 in serum free conditions” value amounted to 1700 nM; the “IC50, cell viability of Hep3B in serum free conditions” value amounted to 35500 nM; the “IC50, cell viability of Huh7 in serum free conditions” value came to 1200 nM. In test [2], binding was characterised by a dissociation constant (Kd) of 3.89 nM, the koff came out at 0.025 s⁻¹ and the kon is 6.47e+06 M⁻¹ s⁻¹. In the test with pro-IGF2^1-104, the Kd stood at 0.54 nM, the koff was found to be 0.0069 s⁻¹ and the kon was found to be 1.29e+07 M⁻¹ s⁻¹. In the test with pro-IGF2^1-156, this molecule registered a Kd of 0.21 nM, a koff of 0.0009 s⁻¹ and a kon of 4.19e+06 M⁻¹ s⁻¹.

B2: domain 11^AB3 P1597H HI^23D (receptor)
chain: MKSNEHDDCQVTNPSTGHLFDLSSLSGRAGFTAAYSKSGVVYMSICGENENCPPGVGACFGQTRISVGKANKRLRYVDQVLQLVYKDGSHCPSKSGLSYKSVISFVCRPEAGPTNRPMLISLHFQSCTLFFSWHTPLACEQATECSV
notes: See m5; Only koff printed
As to B2, the koff in test [3] was determined as 0.012 s⁻¹.

B3: domain 11^AB5 Q1569R P1597H S1602H G1603K (receptor)
chain: B2 chain with S36A, S38G, G39W, V40G, Q62R, S95H, G96K, H123D, F124K, S126T
notes: See m5; Only koff printed; other cells np (no protein)
Regarding B3, the koff in test [3] was 0.005 s⁻¹.

B4: domain 11^AB5 Q1569R P1597K S1602H G1603K (receptor)
chain: MKSNEHDDCQVTNPSTGHLFDLSSLSGRAGFTAAYAKGWGVYMSICGENENCPPGVGACFGRTRISVGKANKRLRYVDQVLQLVYKDGSKCPSKHKLSYKSVISFVCRPEAGPTNRPMLISLDKQTCTLFFSWHTPLACEQATECSV
notes: as for B3
B4 yielded a koff in test [3] of 0.008 s⁻¹.

B5: domain 11^AB3 Q1569R P1597H S1602H (receptor)
chain: B2 chain with Q62R, S95H, H123D, F124K, S126T
notes: See m5
In test [4], B5 returned a Kd of 0.74 nM, a koff of 0.01 s⁻¹ and a kon of 1.41e+07 M⁻¹ s⁻¹. In addition, in test [5], binding was put at a Kd of 0.4 nM, the koff worked out at 0.0064 s⁻¹ and the kon was determined as 1.61e+07 M⁻¹ s⁻¹. The molecule further displayed a Kd in test [6] of 1.53 nM. In test [7], the “fold improved overall affinity compared to domain 11^WT” value stood at 100 fold. In addition, the ΔΔG in test [8] was -7.49 kJ/mol.

B6: domain 11^AB3 Q1569R (receptor)
chain: B2 chain with Q62R, H90P, H123D, F124K, S126T
notes: See m5; also called AB3 + 73E (CD-Q1569R)
In the case of B6, the Kd turned out to be 2.3 nM in [9], 3.15 nM in [10], 2.3 nM in test [4] and 3.15 nM in test [6]. The koff in [9] and in [4] was 0.031 s⁻¹ throughout. For the same molecule, the association rate constant (kon) in [9] and in test [4] was 1.36e+07 M⁻¹ s⁻¹ in each case. The molecule also registered a ΔΔG in test [11] of -4.69 kJ/mol.

B7: domain 11^AB5 P1597H S1602H (receptor)
chain: B4 chain with R62Q, K90H, K96G
notes: See m5
For the molecule B7, in [4], the Kd was 1.17 nM, the koff was 0.0046 s⁻¹ and the kon amounted to 3.5e+06 M⁻¹ s⁻¹. Besides, in test [5], the Kd is 0.62 nM, the off-rate (koff) came out at 0.0029 s⁻¹ and the kon stood at 5.32e+06 M⁻¹ s⁻¹. Moreover, the Kd in test [6] was found to be 2.93 nM. Besides, in test [12], the ΔΔG was -6.36 kJ/mol.

B8: domain 11^AB3 Q1569R P1597H (receptor)
chain: B2 chain with Q62R, H123D, F124K, S126T
notes: See m5
In [4], B8 showed a Kd of 0.9 nM, a koff of 0.0153 s⁻¹ and an on-rate (kon) of 1.89e+07 M⁻¹ s⁻¹. In test [5], this molecule registered a Kd of 0.47 nM, a koff of 0.0091 s⁻¹ and a kon of 1.99e+07 M⁻¹ s⁻¹. The molecule further returned a Kd in [6] of 1.73 nM. In test [13], the ΔΔG was -7.03 kJ/mol.

B9: domain 11^AB5 Q1569R P1597H (receptor)
chain: B4 chain with K90H, H95S, K96G
notes: See m5
Take B9: the results for the Kd in test [4], in [5] and in test [6] were 1.95 nM, 1.46 nM and 5.4 nM, respectively. For the same molecule, the koff turned out to be 0.0058 s⁻¹ in [4] and 0.0034 s⁻¹ in test [5]. In addition, the kon turned out to be 3.2e+06 M⁻¹ s⁻¹ in [4] and 2.37e+06 M⁻¹ s⁻¹ in [5]. In addition, the ΔΔG in test [13] was -5.1 kJ/mol.

B10: domain 11^AB5 HI^23D (receptor)
chain: B2 chain with S36A, S38G, G39W, V40G, H90P
notes: as for B3
The molecule B10 showed a koff in test [3] of 0.012 s⁻¹.

B11: domain 11^AB5 Q1569R (receptor)
chain: B4 chain with K90P, H95S, K96G
notes: See m5
In the case of B11, in [4], binding was characterised by a dissociation constant (Kd) of 2.24 nM, the koff is 0.0175 s⁻¹ and the kon was 8.04e+06 M⁻¹ s⁻¹. The molecule also showed a dissociation constant (Kd) in test [6] of 3.22 nM. In test [11], this molecule came in with a ΔΔG of -4.73 kJ/mol.
